Assay [1] addresses HLA-B*58:01. The assay is described as follows: IEDB peptide-MHC binding, purified MHC/competitive/radioactivity; filed as Kd, often an IC50 or EC50 that approximates it; ≥ and ≤ were set here for values at or beyond the usual limits of such assays.
For assay [2], the target named is HLA-A*24:03. The assay is described as follows: IEDB peptide-MHC binding, purified MHC/competitive/fluorescence; filed as Kd, often an IC50 or EC50 that approximates it; ≥ and ≤ were set here for values at or beyond the usual limits of such assays.
The target in assay [3] is HLA-A*68:02. Described as above. The settings on record: source organism: Mycobacterium tuberculosis variant bovis BCG str. Pasteur 1173P2.
In assay [4] the target is HLA-B*57:01. Described as above. Particulars: source organism: Mycobacterium tuberculosis variant bovis BCG str. Pasteur 1173P2.
For assay [5], the target named is HLA-B*51:01. The description is as above. The settings on record: source organism: Mycobacterium tuberculosis variant bovis BCG str. Pasteur 1173P2.
For assay [6], the target named is HLA-A*29:02. The description is as above. The settings on record: source organism: Mycobacterium tuberculosis variant bovis BCG str. Pasteur 1173P2.
Assay [7] concerns the target HLA-A*02:19. Described as above. The settings on record: source organism: Mycobacterium tuberculosis variant bovis BCG str. Pasteur 1173P2.
For assay [8], the target named is HLA-B*39:01. The description is as above. The settings on record: source organism: Mycobacterium tuberculosis variant bovis BCG str. Pasteur 1173P2.
Assay [9] addresses HLA-B*46:01. The description is as above. Particulars: source organism: Mycobacterium tuberculosis variant bovis BCG str. Pasteur 1173P2.
Assay [10] deals with HLA-B*15:17. The description is as above. The settings on record: source organism: Mycobacterium tuberculosis variant bovis BCG str. Pasteur 1173P2.
Assay [11] addresses HLA-A*26:01. The description is as above. The settings on record: source organism: Mycobacterium tuberculosis variant bovis BCG str. Pasteur 1173P2.
Assay [12] addresses HLA-B*18:01. Described as above. Particulars: source organism: Mycobacterium tuberculosis variant bovis BCG str. Pasteur 1173P2.
Assay [13] concerns the target HLA-A*03:01. The assay is described as above. Particulars: source organism: Mycobacterium tuberculosis variant bovis BCG str. Pasteur 1173P2.
Assay [14] addresses HLA-A*69:01. Described as above. The settings on record: source organism: Mycobacterium tuberculosis variant bovis BCG str. Pasteur 1173P2.
Assay [15] deals with HLA-B*15:01. The description is as above. Particulars: source organism: Mycobacterium tuberculosis variant bovis BCG str. Pasteur 1173P2.
Assay [16] addresses HLA-B*27:03. The assay is described as above. Particulars: source organism: Mycobacterium tuberculosis variant bovis BCG str. Pasteur 1173P2.
Assay [17] addresses HLA-B*44:02. The assay is described as follows: IEDB peptide-MHC binding, purified MHC/competitive/radioactivity; filed as Kd, often an IC50 or EC50 that approximates it; ≥ and ≤ were set here for values at or beyond the usual limits of such assays. Particulars: source organism: Dengue virus 1 Brazil/97-11/1997.
Assay [18] has as its target HLA-B*40:01. The assay can be described thus: IEDB peptide-MHC binding, purified MHC/direct/fluorescence; filed as Kd, often an IC50 or EC50 that approximates it; ≥ and ≤ were set here for values at or beyond the usual limits of such assays.
The target of assay [19] is HLA-A*31:01. The description is as above.
The target in assay [20] is HLA-A*11:01. The description is as above.
Assay [21] deals with HLA-B*08:01. The assay is described as above.
In assay [22] the target is HLA-A*01:01. The description is as above.
In assay [23] the target is HLA-B*46:01. The assay is described as above.
In assay [24] the target is HLA-A*26:01. The assay is described as above.
For assay [25], the target named is HLA-B*18:01. The assay is described as above. Particulars: source organism: Influenza A virus (A/chicken/Vietnam/393/2005(H5N1)).
Assay [26] deals with HLA-A*03:01. The description is as above.
Assay [27] deals with HLA-B*44:02. The assay is described as above.
Assay [28] addresses HLA-A*69:01. The assay is described as above.
Assay [29] deals with HLA-B*58:01. The description is as above.
The target of assay [30] is HLA-A*24:02. Described as above.
In assay [31] the target is HLA-B*07:02. The assay is described as above.
For assay [32], the target named is HLA-B*15:01. The assay is described as above.
For assay [33], the target named is HLA-B*27:05. The description is as above.
Assay [34] deals with HLA-B*08:02. The description is as above.
Assay [35] deals with HLA-A*02:01. The description is as above.
Assay [36] addresses HLA-A*30:01. The assay is described as above. Particulars: source organism: Yersinia pestis.
Assay [37] addresses HLA-B*39:01. Described as above. The settings on record: source organism: H9N2 subtype Influenza A virus (A/swine/Korea/S83/2004(H9N2)).
Where [38] appears, read: source organism: Influenza A virus (A/chicken/Vietnam/393/2005(H5N1)).
The mark [39] stands for this setting: source organism: Influenza A virus(A/swine/Shandong/fNY/2003(H9N2)).
Setting [40] is: source organism: Yersinia pestis.
[41] abbreviates: source organism: H9N2 subtype Influenza A virus (A/swine/Korea/S83/2004(H9N2)).
[42] abbreviates: source organism: Influenza A virus (A/Puerto Rico/8/34/Mount Sinai(H1N1)).

pKd: −log10 of the molar value.

By pKd is commonly meant −log10 of the Kd, conventionally taken in molar units.

With KHVQRIETW, the pKd in [1] (source organism: Dengue virus 2 Jamaica/1409/1983) was 6.84.

Sequence CYPGYFADY showed a pKd in assay [2] (source organism: Influenza A virus (A/Harbin/1/1988(H1N2))) of at least 9.00.

Consider LASAILNAHK, for which the pKd in assay [1] (source organism: Dengue virus 4 Dominica/814669/1981) is 5.46.

With RLAPEPVYT, the pKd in assay [3] was at most 4.70; in assay [4] it was at most 4.70; in assay [2] (source organism: Mycobacterium tuberculosis variant bovis BCG str. Pasteur 1173P2), at most 4.70; in assay [5], at most 4.70; in assay [6] it was 5.52; in assay [7], 7.03. Also, the pKd in assay [8], in assay [9], in assay [10], in [11], in [12] and in assay [13] was at most 4.70 in each case. Besides, the negative-log Kd (pKd) in assay [14], in assay [15] and in [16] was at most 4.70 each time.

Regarding ERSWNSGYDW, the pKd was 6.07 in [17] and 7.02 in [1] (source organism: Dengue virus 1 Brazil/97-11/1997).

Take VLTGNLQTL: the pKd in assay [18] (setting [38]), in assay [19] (setting [38]), in assay [20] (setting [38]), in assay [21] (setting [38]), in [22] (setting [38]) and in [23] (setting [38]) was at most 4.70 in each case. The pKd in assay [24] (setting [39]), in assay [25], in [26] (setting [38]), in assay [27] (setting [38]), in assay [28] (setting [38]) and in assay [29] (setting [38]) was at most 4.70 throughout. The pKd in assay [30] (setting [38]), in assay [31] (setting [38]), in assay [32] (setting [38]), in assay [33] (setting [38]) and in assay [34] (setting [39]) was at most 4.70 each time.

For the sequence YGLGSTPLY, the pKd in [18] (setting [40]) is at most 4.70; in assay [19] (setting [40]), at most 4.70; in assay [35] (setting [40]), at most 4.70; in assay [36], 5.44; in [20] (setting [40]), at most 4.70; in assay [21] (setting [40]), at most 4.70. In addition, the pKd in [22] (setting [40]) is 4.85; in [24] (setting [40]), 5.23; in assay [26] (setting [40]), at most 4.70; in assay [27] (setting [40]), at most 4.70; in assay [28] (setting [40]), at most 4.70; in assay [29] (setting [40]), 4.98. Also, the results for the pKd in assay [31] (setting [40]), in [32] (setting [40]) and in [33] (setting [40]) were at most 4.70, 6.48 and at most 4.70, respectively.

With HFQKDAKVL, the pKd in assay [18] (setting [41]) is at most 4.70; in assay [19] (setting [41]) it was at most 4.70; in assay [35] (setting [41]), at most 4.70; in [20] (setting [41]) it was at most 4.70; in assay [21] (setting [42]), 5.64; in [37] it was 4.98. In addition, the pKd in [22] (setting [41]), in assay [23] (setting [41]), in [26] (setting [41]), in assay [27] (setting [41]), in assay [28] (setting [41]) and in assay [29] (setting [41]) was at most 4.70 throughout. The pKd was at most 4.70 in [30] (setting [41]); at most 4.70 in assay [31] (setting [41]); 5.58 in [32] (setting [42]); at most 4.70 in assay [33] (setting [41]); at most 4.70 in [34] (source organism: Influenza A virus(A/swine/Shandong/fZC/2003(H9N2))).

Take TAAVLLLITH: in [1] (source organism: Dengue virus 3 Martinique/1243/1999), the pKd was 6.12.
